Assay results taken from patent US20110039729A1.

Assays:
[1] = target: soybean agglutinin (SBA), GalNAc-specific lectin (soybean) (UniProt P05046)
[2] = target: soybean agglutinin (SBA), GalNAc-specific lectin (soybean) (UniProt P05046); assay: single SBA panning step, 8×10^6 cfu glycophage alone
[3] = target: soybean agglutinin (SBA), GalNAc-specific lectin (soybean) (UniProt P05046); assay: single SBA panning step, glycophage with 10^2-fold excess of aglycosylated phage
[4] = target: soybean agglutinin (SBA), GalNAc-specific lectin (soybean) (UniProt P05046); assay: single SBA panning step, glycophage with 10^4-fold excess of aglycosylated phage
[5] = target: soybean agglutinin (SBA), GalNAc-specific lectin (soybean) (UniProt P05046); assay: single SBA panning step, 8×10^6 cfu glycophage mixed with an equal amount of aglycosylated phage
[6] = target: soybean agglutinin (SBA), GalNAc-specific lectin (soybean) (UniProt P05046); assay: single SBA panning step, 8×10^10 aglycosylated phage applied

Chain of UniProt P05046 (P05046 33-285 limits assumed): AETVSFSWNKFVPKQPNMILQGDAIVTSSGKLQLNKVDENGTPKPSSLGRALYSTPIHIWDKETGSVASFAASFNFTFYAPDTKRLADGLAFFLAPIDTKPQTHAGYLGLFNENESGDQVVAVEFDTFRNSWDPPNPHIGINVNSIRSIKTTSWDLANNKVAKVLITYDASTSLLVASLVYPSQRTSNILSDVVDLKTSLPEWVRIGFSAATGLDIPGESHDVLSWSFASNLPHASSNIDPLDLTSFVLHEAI

Substance | fold increase in phage titer in the eluate [1] | phage titer in the eluate [1] | percent of phages recovered [2] | phages recovered [2] | percent of phage bound by SBA [3] | phage bound by SBA [3] | percent of phage bound by SBA [4] | phage bound by SBA [4] | percent of phage bound by SBA [5] | phage bound by SBA [5] | infectious particles bound to SBA [6]
glycosylated AcrA-g3p fusion protein from TG1 pgl+ cells (in lysates and displayed on phage) (from UniProt P69168 19-424) | 1000 fold | 1e+06 cfu/ml | 96% | 7.7e+06 cfu | 93% | 7.4e+06 cfu | 79% | 6.3e+06 cfu | 96% | 7.8e+06 cfu | 
non-glycosylated AcrA-g3p fusion protein from TG1 pglmut cells (in lysates and displayed on phage) (from UniProt P69168 19-424) |  | 1000 cfu/ml |  |  |  |  |  |  |  |  | 38000 cfu
